Among the data in a protein production outcome set (Wang et al. 2014) are protein production values, retold here.

This data set in a line: label from the status in PepcDB records.

With “MGHHHHHHSHMSTSLTGKPGALPANLDDMKVAELKQELKLRSLPVSGTKTELIERLRAYQDQISPVPGAPKAPAA”, the protein production entry is on record as “failed”.

Consider “MGHHHHHHSHMTENDLASLFNNSALFKALGFNIIEINDDAIVMEINDDNPCHQGGFGVLTSLGINGAVISAALESAIGLCGFNALGREPAGVVELSVKILRVIRKKPCRVEARVDNKNNNVAFISATLISARGGICATGTGIVLKSKTTEATQ”, for which the protein production entry is listed as “not failed”.

With “MGHHHHHHSHMVDRLQSEPESIRKWREEQMERLEALDANSRKQEAEWKEKAIKELEEWYARQDEQLQKTKANNRVADEAFYKQPFADVIGYVTNINHPCYSLEQAAEEAFVNDIDESSPGTEWERVARLCDFNPKSS”, the protein production entry is “not failed”.

As for “MGHHHHHHSHMVTHSKFPAAGMSRPLDTSLRLKTFSSKSEYQLVVNAVRKLQESGFYWSAVTGGEANLLLSAEPAGTFLIRDSSDQRHFFTLSVKTQSGTKNLRIQCEGGSFSLQSDPRSTQPVPRFDCVLKLVHHYMPPPGAPSFPSPPTEPSSEVPEQPSAQPLPGSPPRRAYYIYSGGEKIPLVLSRPLSSNVATLQHLCRKTVNGHLDSYEKVTQLPGPIREFLDQYDAPL”, the protein production entry was “failed”.

In the case of “MGHHHHHHSHSEVAIKIDFDFAPGSFDDQYQGCSKQVMEKLTQGDYFTKDIEAQKNYFRMWQKAHLAWLNQGKVLPQNMTTTHAVAILFYTLNSNVHSDFTRAMASVARTPQQYERSFHFKYLHYYLTSAIQLLRKDSIMENGTLCYEVHYRTKDVHFNAYTGATIRFGQFLSTSLLKEEAQEFGNQTLFTIFTCLGAPVQYFSLKKEVLIPPYELFKVINMSYHPRGNWLQLRSTGNLSTYNCQLLKASSKKC”, the protein production result is recorded as “failed”.

Take “MGHHHHHHSHSKKPYIVTIACTKGGSAKSTNAANIGAFCADHGLRTLLIDTDTQPTLSSYYSLAKTAPGGIYEFLLQRDVEPSHIVSQTSIKNLDLIQSNDPSNNVSHMLRNAPDGSIRFSHLIKSINNYDVIVIDTRGTRDITVDMSVLAADILFCPILPQILSAKEFIRGTIGMYQDLQTFESFGFKLPPLKAIANGVDNTNDVKFVMQKLHTLFANTFDESKTLLDFSIPYHVAYREAVTYALPVYRHSAVEYPVMQQLCC”: the protein production result was “failed”.

Consider “MGHHHHHHSHSSEVNATEEMSTLVNYIEPVKFKSFEAARKRNKCFEMSSFVETKAMEQLTKSPMEFVEYNKQQLSRIYPKGTRVDSSNYMPQLFWNVGCQLVALNFQTLDVAMQLNAGVFEYNGRSGYLLKPEFMRRPDKSFDPFTEVIVDGIVANALRVKVISGQ”, for which the protein production entry is recorded as “failed”.

Regarding “MGHHHHHHSHVAKVSQREEMVKKCLGELTEVCKSLGKVFGVHYFNIFNTVTLKKLAESLSSDPEVLLQIDGVTEDKL”, the protein production entry was “failed”.

Regarding “MGHRHQFGHGRRGGALMERALIIGASGWGREVLEQMRGDAGHGKDWLIGGFLDSRTNILDSYGVDTPIIGDPMNYLPQPDDVFVCAMGNPYDRHRYALPILQKGGRFIPICTDVRLGRRVHFGQGCFFGLMVHSGPDVRIGDFVTIHAQSMLGHDVRIGDYVHVGAMAFMGGGVQLGDFVTVHPRATLMPGVKVGDGAVIGAGAVVLKDVPAGATVFGNPAKIVFNKNIPTD”, the protein production result is listed as “failed”.

As to “MGIFEPFRAIGYITSTVPFSVQRLGTETFVTVSVGKAFQIYNCAKLNLVIISPQLPKKIRALASYRDYTFVAFGNEIAVFRRAHQVATWSKHVAKVDLLLVFGEHVLSLDVEGNMFIWAFKGIEEHLAPIGNLQLTGKFTPTSIVHPDTYLNKVLVGSQEGPLQLWNINTKKMLYQFKGWGSSVTSCVSSPALDVVAIGCADGKIHVHNIKLDEEIVTFEHASRGAVTALSFSTDGRPLLASGGSFGVISIWNLNKKRLQSVIRDAHDSSIISLNFLANEPVLMSASADNSLKMWIFDTNDGDPRLLRFRSGHSAPPLCIRFYSNGRHILSAGQDRAFRLFSVIQEQQSRELSQRHISRRAKKLRLKEEELKLKPVVSFDCAEIRERDWCNVVTCHMDTAEAYVWRLQNFVLGEHILKPCPENPTPIKACAISACGNFAVVGTAGGWIERFNLQSGISRGSYFDMSEKRRYAHDGEVIGVACDSTNTLMISAGYHGDLKVWDFKKRELKSQWDVGCSLVKIVYHRVNGLLATVADDFVIRLYDVVTLKMVREFRGHTDRITDLCFSEDGKWVISSSMDGSLRIWDVILAKQIDGVHVDVPITALSLSPNMDVLATAHSDQNGVYLWVNQSMFSGLPSVESYASGKDVVNVKLPSVSALTSSEADDDMDRQVLENSEALQASSFSISQKQIPELVTLSLLPKSQWQSLINLDIIKARNKPIEPPKKPEKAPFFLPSIPSLSGDILFKANDSEADGENEENNKKDQNSMKNFDALESPFSKHLKSSWDSKHFLDFTNYMKSLSPSALDMELRMLEIIDEDVEEELIKRPEFILIGQLLDYFINEVSCKNDFEFMQAVVKLFLKIHGETIRCHPSLQEKAKKLLETQSLVWQKMEKLFQSTRCIVTFLSNSQF”, the protein production entry was “failed”.

Take “MGIKEKEIELETLKREIAQAEASLEQDFIKYMVDKTNEKVEDLFFSNKPEFYRFVFTEQNNYLREKLTDKVGRAMDLSDEIQRDKTENESLENGTKFKKRFVFELQNDLIFLRTKRNTYSAKTEHENFQERLLAAKDTFRLIKANDFKTKIYPYQITLRLKTKHIIVFRWLKKEIIKRFVKKDLFTETLSIKITDKKGQKYALIANYNHASDIIELMLDDKTYTTTLYYQKPLFDLIKNSNFNLTIKDNTLEINQAKKRLFV”: the protein production result is on record as “failed”.

On to “MGIKQYSQEELKEMALVEIAHELFEEHKKPVPFQELLNEIASLLGVKKEELGDRIAQFYTDLNIDGRFLALSDQTWGLRSWYPYDQLDEETQPTVKAKKKKAKKAVEEDLDLDEFEEIDEDDLDLDEVEEELDLEADDFDEEDLDEDDDDLEIEEDIIDEDDEDYDDEEEEI”, for which the protein production entry is on record as “failed”.

As to “MGIKQYSQEELKEMALVEIAHELFEEHKKPVPFQELLNEIASLLGVKKEELGDRIAQFYTDLNIDGRFLALSDQTWGLRSWYPYDQLDEETQPTVKAKKKKAKKAVEEDLDLDEFEEIDEDDLDLDEVEEELDLEADDFDEEDLDEDDDDLEIEEDIIDEDDEDYDDEEEEIK”, the protein production result is “not failed”.

“MGILDKVKNLLSQNADKVETVINKAGEFVDEQTQGNYSDAIHKLHDAASNVVGMSDQQS”: the protein production result is listed as “not failed”.

“MGIRNSKTFTSTDIATYYDVSEDHYMYFWDLNQSHSLHYGYWDASTKTFREALANINRVLAEKASITAGTRVLDAGCGVGGSSIWLAKNKQANVTGITVSKKQAARANTSAAAVNPGGTAVFDVQDYTNTPYHSESFDVVWAIESVCHAANKEDFIKEAYRLLKPGGQLIMADFFIVKDGNADDQRSIDAWGHGWAVPFFEKKDAFQHMLLKAGFNTADMIDSTEHIRRSAKRLYYAFFPGWIISKLYNLVNRRTTEFSKNNVYTAYYQYKTLKKELWKYYIVHAKK”: the protein production entry is “failed”.

Turning to “MGISVASSNKPNNYDRYFNIYGVVIAAVLAAIAAIEIFEIFELPFEKYFAGIDIASIFSFTTKVVSDSSYVGIFILMTLESMFIPIPSEVILPLSGFLVYQGSFNFAVVLADTIIASMVGSFIDYFLGLYLGRPIIVKILSYFSISEDSLSRAETWIDKMGSFSVFLARFIPGIRSLISLPAGMLKMKMWLFALMTFLGSFIWSFSLIYLGYSAGPYWSVAVKNFSALLDQIIIDVVFLASLAYIFYYIFLKIKRRQHALD”, the protein production result is “failed”.

Consider “MGKIMEWAARSDHLGGIPRNTVIMAVSAFAKAVANLCNKSSVHNADTLMNLVQSRPPGVPLITVSNHMSTLDDPVMWGAFKGLLSLDPELARWVLAAEDICFRNPIFSYIFRTGKCIPITRGGGIYQENMNEALQRLKDGSWLHTFPEGKVFQDDVPIRRLKWGTASLIARSPVTPIVLPIIHRGFEEMMPENYNNGRRPLVPLPNKHLKVVVGEPIEFDVPMMVETAVLDSRHVTPPLQEVKWPVLTSAGQVLDETAQRHLYIALSEKIQSSLETLRLLAKRL”, for which the protein production entry is listed as “failed”.

Take “MGKKELKRGLVVDREAQMIGVYLFEDGKTYRGIPRGKVLKKTKIYAGDYVWGEVVDPNTFAIEEVEERKNLLIRPKVANVDRVIIVETLKMPEFNNYLLDNMLVVYEYFKVEPVIVFNKIDLLNEEEKKELERWISIYRDAGYDVLKVSAKTGEGIDELVDYLEGFICILAGPSGVGKSSILSRLTGEELRTQEVSEKTERGRHTTTGVRLIPFGKGSFVGDTPGFSKVEATMFVKPREVRNYFREFLRYQCKYPDCTHTNEPGCAVKEAVKNGEISCERYKSYLKIIKVYLEEIKELCRED”: the protein production entry is reported as “not failed”.
